The text below walks through data of patent publication US20170015742A1 (published 2017).

The labels stand for the following.
B1: chBFU-3E2-B9-B8 (antibody, human IgG1, V domains shown)
VH: EVQLQQSGPELQRPGASVKLSCKASGYTFTESYMYWVKQRPEQSLELIGRIDPEDGSTDYVEKFKNKATLTADTSSNTAYMQLSSLTSEDSATYFCARFGARSYFYPMDAWGQGTSVTVSS
VL: DTVLTQPPALAVSPGERVSISCRASESVSTLMHWYQQKPGQQPRLLIYGASNLESGVPARFSGSGSGTDFTLTIDPVEADDTATYFCQQSWNDPWTFGGGTKLELK
B2: chBFU-3E2 half-body (antibody, V domains shown)
VH: B1 VH
VL: B1 VL
B3: chBFU-11A8-D6-C3 (antibody, human IgG1, V domains shown)
VH: B1 VH with M34I, S91T
VL: B1 VL with P7S, A9T, S21P
B4: chBFU-11A8 half-body (antibody, V domains shown)
VH: B1 VH with M34I, S91T
VL: B1 VL with P7S, A9T, S21P
B5: 3E2.1_GS_9E10.1 (PR-1612500) (bispecific antibody, human IgG1, kappa, L234A L235A)
heavy: EVQLVQSGAEVKKPGSSVKVSCKASGYTFTESYMYWVKQAPGQGLELIGRIDPEDGSTDYVEKFKNKATLTADKSTSTAYMELSSLRSEDTAVYFCARFGARSYFYPMDAWGQGTTVTVSSGGGGSGGGGSEIQLVQSGSELKKPGASVKVSCKASGYTFTNYGMYWVKQAPGQGLEYMGWIDTETGRPTYADDFKGRFVFSLDTSVSTAYLQISSLKAEDTAVYFCARWSGDTTGIRGPWFAYWGQGTLVTVSSASTKGPSVFPLAPSSKSTSGGTAALGCLVKDYFPEPVTVSWNSGALTSGVHTFPAVLQSSGLYSLSSVVTVPSSSLGTQTYICNVNHKPSNTKVDKKVEPKSCDKTHTCPPCPAPEAAGGPSVFLFPPKPKDTLMISRTPEVTCVVVDVSHEDPEVKFNWYVDGVEVHNAKTKPREEQYNSTYRVVSVLTVLHQDWLNGKEYKCKVSNKALPAPIEKTISKAKGQPREPQVYTLPPSREEMTKNQVSLTCLVKGFYPSDIAVEWESNGQPENNYKTTPPVLDSDGSFFLYSKLTVDKSRWQQGNVFSCSVMHEALHNAYTQKSLSLSPGK
light: ETVLTQSPATLSLSPGERATLSCRASESVSTLMHWYQQKPGQQPRLLIYGASNLESGVPARFSGSGSGTDFTLTISSLEPEDFAVYFCQQSWNDPWTFGGGTKVEIKGGSGGGGSGGDIRMTQSPSSLSASVGDRVTIECLASEDIYSDLAWYQQKPGKSPKLLIYNANGLQNGVPSRFSGSGSGTDYSLTISSLQPEDVATYFCQQYNYFPGTFGQGTKLEIKRTVAAPSVFIFPPSDEQLKSGTASVVCLLNNFYPREAKVQWKVDNALQSGNSQESVTEQDSKDSTYSLSSTLTLSKADYEKHKVYACEVTHQGLSSPVTKSFNRGEC
B6: 3E2.1_GS_9E10.6 (PR-1612501) (bispecific antibody, human IgG1, kappa, L234A L235A)
heavy: EVQLVQSGAEVKKPGSSVKVSCKASGYTFTESYMYWVKQAPGQGLELIGRIDPEDGSTDYVEKFKNKATLTADKSTSTAYMELSSLRSEDTAVYFCARFGARSYFYPMDAWGQGTTVTVSSGGGGSGGGGSEVQLVQSGAEVKKPGSSVKVSCKASGYTFTNYGMYWVRQAPGQGLEWMGWIDTETGRPTYADDFKGRFTFTADKSTSTAYMELSSLRSEDTAVYYCARWSGDTTGIRGPWFAYWGQGTLVTVSSASTKGPSVFPLAPSSKSTSGGTAALGCLVKDYFPEPVTVSWNSGALTSGVHTFPAVLQSSGLYSLSSVVTVPSSSLGTQTYICNVNHKPSNTKVDKKVEPKSCDKTHTCPPCPAPEAAGGPSVFLFPPKPKDTLMISRTPEVTCVVVDVSHEDPEVKFNWYVDGVEVHNAKTKPREEQYNSTYRVVSVLTVLHQDWLNGKEYKCKVSNKALPAPIEKTISKAKGQPREPQVYTLPPSREEMTKNQVSLTCLVKGFYPSDIAVEWESNGQPENNYKTTPPVLDSDGSFFLYSKLTVDKSRWQQGNVFSCSVMHEALHNAYTQKSLSLSPGK
light: B5 light with E139T, S189T
B7: CL-34565_GS_CL-33675 (PR-1613183) (bispecific antibody, human IgG1, kappa, L234A L235A)
heavy: EVQLVQSGSELKKPGASVKVSCKASGYTFTDYGMYWVRQAPGQGLEWMGWIDTETGDPTYADDFKGRFVFSLDTSVSTAYLQISSLKAEDTAVYYCARTNYYYRNYMFYFDYWGQGTMVTVSSGGGGSGGGGSEVTLRESGPALVKPTQTLTLTCTFSGFSLSTYGMGVGWIRQPPGKALEWLANIWWDDDKYYNPSLKNRLTISKDTSKNQVVLTMTNMDPVDTATYYCARIESSGPKYSFDYWGQGTMVTVSSASTKGPSVFPLAPSSKSTSGGTAALGCLVKDYFPEPVTVSWNSGALTSGVHTFPAVLQSSGLYSLSSVVTVPSSSLGTQTYICNVNHKPSNTKVDKKVEPKSCDKTHTCPPCPAPEAAGGPSVFLFPPKPKDTLMISRTPEVTCVVVDVSHEDPEVKFNWYVDGVEVHNAKTKPREEQYNSTYRVVSVLTVLHQDWLNGKEYKCKVSNKALPAPIEKTISKAKGQPREPQVYTLPPSREEMTKNQVSLTCLVKGFYPSDIAVEWESNGQPENNYKTTPPVLDSDGSFFLYSKLTVDKSRWQQGNVFSCSVMHEALHNAYTQKSLSLSPGK
light: EIVLTQSPATLSLSPGERATLFCRASQSVSNHMHWYQQKPGQAPRLLIYGASILESGVPARFSGSGSGTDFTLTISSLEPEDFAVYYCQQSWYDPITFGQGTKLEIKGGSGGGGSGGEIVLTQSPGTLSLSPGERATLSCRASSGSIWYSFVSWYQQKPGQAPRLLIYADDQRASGIPDRFSGSGSGTDFTLTISRLEPEDFAVYYCQSYGINIDVVFGGGTKVEIKRTVAAPSVFIFPPSDEQLKSGTASVVCLLNNFYPREAKVQWKVDNALQSGNSQESVTEQDSKDSTYSLSSTLTLSKADYEKHKVYACEVTHQGLSSPVTKSFNRGEC
B8: CL-34565_GS_9E8.4 (PR-1613184) (bispecific antibody, human IgG1, kappa, L234A L235A)
heavy: B7 heavy with S236I, P238T, K239T
light: EIVLTQSPATLSLSPGERATLFCRASQSVSNHMHWYQQKPGQAPRLLIYGASILESGVPARFSGSGSGTDFTLTISSLEPEDFAVYYCQQSWYDPITFGQGTKLEIKGGSGGGGSGGEFVLTQSPGTLSLSPGERATLSCERSSGDIGDSYVSWYQQKPGQAPRLVIYADDQRPSGIPDRFSGSGSGTDFTLTISRLEPEDFAVYYCQSYDINIDIVFGGGTKVEIKRTVAAPSVFIFPPSDEQLKSGTASVVCLLNNFYPREAKVQWKVDNALQSGNSQESVTEQDSKDSTYSLSSTLTLSKADYEKHKVYACEVTHQGLSSPVTKSFNRGEC
B9: 3E2.1_GS_1B10.1 (PR-1612502) (bispecific antibody, human IgG1, kappa, L234A L235A)
heavy: EVQLVQSGAEVKKPGSSVKVSCKASGYTFTESYMYWVKQAPGQGLELIGRIDPEDGSTDYVEKFKNKATLTADKSTSTAYMELSSLRSEDTAVYFCARFGARSYFYPMDAWGQGTTVTVSSGGGGSGGGGSEVQLVESGGGLVQPGGSLRLSCAASGFSFSKYDMAWFRQAPGKGLEWVASITTSGVGTYYRDSVKGRFTVSRDNAKSTLYLQMNSLRAEDTAVYYCARGYGAMDAWGQGTTVTVSSASTKGPSVFPLAPSSKSTSGGTAALGCLVKDYFPEPVTVSWNSGALTSGVHTFPAVLQSSGLYSLSSVVTVPSSSLGTQTYICNVNHKPSNTKVDKKVEPKSCDKTHTCPPCPAPEAAGGPSVFLFPPKPKDTLMISRTPEVTCVVVDVSHEDPEVKFNWYVDGVEVHNAKTKPREEQYNSTYRVVSVLTVLHQDWLNGKEYKCKVSNKALPAPIEKTISKAKGQPREPQVYTLPPSREEMTKNQVSLTCLVKGFYPSDIAVEWESNGQPENNYKTTPPVLDSDGSFFLYSKLTVDKSRWQQGNVFSCSVMHEALHNAYTQKSLSLSPGK
light: ETVLTQSPATLSLSPGERATLSCRASESVSTLMHWYQQKPGQQPRLLIYGASNLESGVPARFSGSGSGTDFTLTISSLEPEDFAVYFCQQSWNDPWTFGGGTKVEIKGGSGGGGSGGDIQMTQSPSSLSASVGDRVTITCKASQDIDDYLSWYQQKPGKSPKLVIYAATRLADGVPSRFSGSGSGTDYTLTISSLQPEDFATYYCLQSSSTPWTFGGGTKVEIKRTVAAPSVFIFPPSDEQLKSGTASVVCLLNNFYPREAKVQWKVDNALQSGNSQESVTEQDSKDSTYSLSSTLTLSKADYEKHKVYACEVTHQGLSSPVTKSFNRGEC

Numbering of substitutions follows the chain as printed.

Sequence of recombinant human VEGF165 (P15692 other isoform, or with tags, fused parts or gaps limits assumed): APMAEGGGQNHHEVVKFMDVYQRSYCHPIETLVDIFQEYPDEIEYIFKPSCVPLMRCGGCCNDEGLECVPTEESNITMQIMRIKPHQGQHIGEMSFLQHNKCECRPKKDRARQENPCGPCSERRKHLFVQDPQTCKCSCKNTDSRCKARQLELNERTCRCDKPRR
Sequence of recombinant human PDGF-BB (human, UniProt P01127 82-190) (P01127 82-190 limits assumed): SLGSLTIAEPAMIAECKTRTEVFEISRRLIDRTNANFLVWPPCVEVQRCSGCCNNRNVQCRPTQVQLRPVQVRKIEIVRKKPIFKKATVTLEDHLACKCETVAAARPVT

In one experiment the target is T1, recombinant human PDGF-BB (human, UniProt P01127 82-190, biotin-labelled in the binding and competition ELISAs (sites not given)). Description: cell-based or functional assay.
T1 sequence (P01127 82-190 limits assumed): as above
For B1, the “huPDGF-BB Neutralization Potency (nM) in NIH-3T3 Cells” value (from here on “huPDGF-BB Neutralization Potency (nM)”) was 0.099 nM.
Consider B2, for which the “huPDGF-BB Neutralization Potency (nM)” value was found to be 2.49 nM.
For the molecule B3, the “huPDGF-BB Neutralization Potency (nM)” value was 0.086 nM.
On to B4, for which the “huPDGF-BB Neutralization Potency (nM)” value was greater than 10 nM.

A further experiment addresses recombinant human PDGF-BB (human, UniProt P01127 82-190). Description: cell-based or functional assay.
As to B5, the “Potency IC50 (nM), NIH-3T3 hPDGF-BB (proliferation)” value was determined as 0.394 nM.
With B6, the “Potency IC50 (nM), NIH-3T3 hPDGF-BB (proliferation)” value turned out to be 0.377 nM.
On the same count and under the same terms, the value for B7 was 0.052 nM; that for B8 was 0.323 nM; that for B9 was 0.187 nM.

Another experiment addresses recombinant human VEGF165 (human, UniProt P15692 207-395). Description: cell-based or functional assay.
For the molecule B5, the “Potency IC50 (nM), HMVEC-d hVEGF165 (proliferation)” value (from here on “Potency IC50 (nM), HMVEC-d hVEGF165”) is 0.133 nM.
On to B6, for which the “Potency IC50 (nM), HMVEC-d hVEGF165” value amounted to 0.188 nM.
B7: the “Potency IC50 (nM), HMVEC-d hVEGF165” value stood at 0.059 nM.
Regarding B8, the “Potency IC50 (nM), HMVEC-d hVEGF165” value was found to be 0.065 nM.
Consider B9, for which the “Potency IC50 (nM), HMVEC-d hVEGF165” value was 1.78 nM.

In the next experiment the target is T1, recombinant human PDGF-BB. The experiment in a line: Biacore SPR, antibody captured by anti-human Fc, PDGF-BB injected. The method, then:
For example, approximately 9000 RU of goat anti-human Fc specific polyclonal antibody (Thermo Fisher Scientific Inc., Rockford, Ill.) diluted in 10 mM sodium acetate (pH 4.5) is directly immobilized across a CM5 research grade biosensor chip using a standard amine coupling kit according to manufacturer's instructions and procedures at 25 μg/ml. Unreacted moieties on the biosensor surface were blocked with ethanolamine. For kinetic analysis, rate equations derived from the 1:1 Langmuir binding model were fitted simultaneously to multiple antigen injections (using global fit analysis) with the use of Scrubber 2 (BioLogic Software), Biacore Biaevaluation 4.0.1 software or Biacore T100 Evaluation software. Purified antibodies or DVD-Ig molecules were diluted in running buffer for capture across goat anti-human Fc reaction surfaces. Antibodies or DVD-Ig molecules to be captured as a ligand (1 μg/ml) were injected over reaction matrices at a flow rate of 10 μl/minute. During the assay, all measurements were referenced against the capture surface alone (i.e., with no captured antibody or DVD-Ig molecule). […] The equilibrium dissociation constant KD (M) of the reaction between antibodies and the target antigen was then calculated from the kinetic rate constants by the following formula: KD=Koff/Kₒₙ. Binding was recorded as a function of time and kinetic rate constants were calculated.
On to B1, for which the Kd is no more than 0.019 nM, the off-rate (koff) is 0.00019 s⁻¹ and the association rate constant (kon) was no less than 1e+07 M⁻¹ s⁻¹.
With B3, the Kd was no more than 0.015 nM, the off-rate constant (koff) came to 0.00015 s⁻¹ and the on-rate constant (kon) was no less than 1e+07 M⁻¹ s⁻¹.
